One substance from patent US20130149309A1 can be followed below.

For the test, the target named is γ-secretase of HEK293 cell membrane preparations. In words: cell-based or functional assay.

Turning to “recombinant gSAP-16K (aa733-854 of the human gSAP), expressed and purified from BL21 DE3 E.coli (from UniProt A4D1B5 733-854)”, the Aβ production in an in vitro γ-secretase assay was 2.4 fold.
